The data set deals with the molecule itself. As to the kind of experiment: crystal structure.

B1: S. elongatus KaiC A422V mutant protein (natural protein, Synechococcus elongatus, UniProt Q79PF4 1-519, looked up)
chain: MTSAEMTSPNNNSEHQAIAKMRTMIEGFDDISHGGLPIGRSTLVSGTSGTGKTLFSIQFLYNGIIEFDEPGVFVTFEETPQDIIKNARSFGWDLAKLVDEGKLFILDASPDPEGQEVVGGFDLSALIERINYAIQKYRARRVSIDSVTSVFQQYDASSVVRRELFRLVARLKQIGATTVMTTERIEEYGPIARYGVEEFVSDNVVILRNVLEGERRRRTLEILKLRGTSHMKGEYPFTITDHGINIFPLGAMRLTQRSSNVRVSSGVVRLDEMCGGGFFKDSIILATGATGTGKTLLVSRFVENACANKERAILFAYEESRAQLLRNAYSWGMDFEEMERQNLLKIVCAYPESAGLEDHLQIIKSEINDFKPARIAIDSLSALARGVSNNAFRQFVIGVTGYAKQEEITGLFTNTSDQFMGVHSITDSHISTITDTIILLQYVEIRGEMSRAINVFKMRGSWHDKAIREFMISDKGPDIKDSFRNFERIISGSPTRITVDEKSELSRIVRGVQEKGPES
modifications: phosphothreonine at T432 in all six subunits; S431 not phosphorylated
For the protein B1, the “stoichiometry N” value was 6.

In general, stoichiometry N refers to the number of molecules, sites or subunits per partner or assembly.

These data come from PMC3587310 (Biochemistry, 2013).
